Data taken from patent CN116284393A (BEIJING DONGFANG BIOTECH CO LTD, dated 2023).

Columns and labels:
[1] = target: T1, 人单核细胞白血病细胞(THP-1)表面LILRB4 (human, UniProt Q8NHJ6 22-448); test: cell-based or functional assay
[2] = target: T2, LILRA5 (UniProt A6NI73 42-268, limits assumed); test: ELISA, coated protein 100ng/well
[3] = target: T3, LILRA6 (UniProt Q6PI73 24-447, limits assumed); test: ELISA, coated protein 100ng/well
[4] = target: T4, LILRB1 (UniProt Q8NHL6 24-461, limits assumed); test: ELISA, coated protein 100ng/well
[5] = target: T5, LILRB2 (UniProt Q8N423 22-460, limits assumed); test: ELISA, coated protein 100ng/well
[6] = target: T6, LILRB3 (UniProt O75022 24-443, limits assumed); test: ELISA, coated protein 100ng/well
[7] = target: T7, LILRB5 (UniProt O75023 24-458, limits assumed); test: ELISA, coated protein 100ng/well
[8] = target: T8, LILRA1 (UniProt O75019 17-461, limits assumed); test: ELISA, coated protein 100ng/well
[9] = target: T9, LILRA2 (UniProt Q8N149 24-449, limits assumed); test: ELISA, coated protein 100ng/well
[10] = target: T10, LILRA3 (UniProt Q8N6C8 24-439); test: ELISA, coated protein 100ng/well
[11] = target: T11, LILRA4 (UniProt P59901 24-446, limits assumed); test: ELISA, coated protein 100ng/well
[12] = target: T2, LILRA5; test: ELISA, coated protein, antibody at 50μg/mL
[13] = target: T3, LILRA6; test: ELISA, coated protein, antibody at 50μg/mL
[14] = target: T4, LILRB1; test: ELISA, coated protein, antibody at 50μg/mL
[15] = target: T5, LILRB2; test: ELISA, coated protein, antibody at 50μg/mL
[16] = target: T6, LILRB3; test: ELISA, coated protein, antibody at 50μg/mL
[17] = target: T7, LILRB5; test: ELISA, coated protein, antibody at 50μg/mL
[18] = target: T12, LILRB4抗原 (人LILRB4蛋白胞外段) (human, UniProt Q8NHJ6 22-259); test: ELISA, coated protein, antibody at 50μg/mL
T12 construct: extracellular domain; Made in house from a synthesised gene

[19] = target: T8, LILRA1; test: ELISA, coated protein, antibody at 50μg/mL
[20] = target: T9, LILRA2; test: ELISA, coated protein, antibody at 50μg/mL
[21] = target: T10, LILRA3; test: ELISA, coated protein, antibody at 50μg/mL
[22] = target: T11, LILRA4; test: ELISA, coated protein, antibody at 50μg/mL
[23] = target: T12, LILRB4抗原 (人LILRB4蛋白胞外段); test: ELISA, coated LILRB4, Goat Anti-Mouse IgG-HRP
[24] = target: T1, 人单核细胞白血病细胞(THP-1)表面LILRB4; test: flow cytometry on THP-1 cells, FITC goat anti-mouse IgG
[25] = target: T1, 人单核细胞白血病细胞(THP-1)表面LILRB4; test: flow cytometry competition on THP-1 cells, competitor FITC-labelled ApoE 0.4μg/mL

T10 sequence (Q8N6C8 24-439 limits assumed): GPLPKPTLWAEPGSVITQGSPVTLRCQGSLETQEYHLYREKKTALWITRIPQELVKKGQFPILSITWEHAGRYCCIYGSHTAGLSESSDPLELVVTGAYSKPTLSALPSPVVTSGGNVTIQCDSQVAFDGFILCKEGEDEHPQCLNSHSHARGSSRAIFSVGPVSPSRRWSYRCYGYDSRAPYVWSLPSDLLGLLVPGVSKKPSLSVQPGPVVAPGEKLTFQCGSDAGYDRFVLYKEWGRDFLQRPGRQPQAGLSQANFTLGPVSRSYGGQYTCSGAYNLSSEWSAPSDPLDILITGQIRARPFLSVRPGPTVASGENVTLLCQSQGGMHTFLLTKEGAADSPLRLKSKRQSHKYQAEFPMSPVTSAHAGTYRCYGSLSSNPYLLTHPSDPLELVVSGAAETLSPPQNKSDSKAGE
T7 sequence (O75023 24-458 limits assumed): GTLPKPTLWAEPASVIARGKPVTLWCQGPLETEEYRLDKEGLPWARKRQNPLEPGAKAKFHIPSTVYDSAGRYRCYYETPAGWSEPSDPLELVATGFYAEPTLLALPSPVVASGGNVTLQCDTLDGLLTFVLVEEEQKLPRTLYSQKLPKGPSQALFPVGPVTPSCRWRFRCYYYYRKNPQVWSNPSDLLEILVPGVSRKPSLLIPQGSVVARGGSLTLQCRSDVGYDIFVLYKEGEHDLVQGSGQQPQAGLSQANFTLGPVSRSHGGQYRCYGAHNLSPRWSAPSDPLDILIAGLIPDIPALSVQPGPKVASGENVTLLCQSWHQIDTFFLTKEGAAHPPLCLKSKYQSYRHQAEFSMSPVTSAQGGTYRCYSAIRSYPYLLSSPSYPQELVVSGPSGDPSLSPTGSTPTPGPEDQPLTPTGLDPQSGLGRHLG
T9 sequence (Q8N149 24-449 limits assumed): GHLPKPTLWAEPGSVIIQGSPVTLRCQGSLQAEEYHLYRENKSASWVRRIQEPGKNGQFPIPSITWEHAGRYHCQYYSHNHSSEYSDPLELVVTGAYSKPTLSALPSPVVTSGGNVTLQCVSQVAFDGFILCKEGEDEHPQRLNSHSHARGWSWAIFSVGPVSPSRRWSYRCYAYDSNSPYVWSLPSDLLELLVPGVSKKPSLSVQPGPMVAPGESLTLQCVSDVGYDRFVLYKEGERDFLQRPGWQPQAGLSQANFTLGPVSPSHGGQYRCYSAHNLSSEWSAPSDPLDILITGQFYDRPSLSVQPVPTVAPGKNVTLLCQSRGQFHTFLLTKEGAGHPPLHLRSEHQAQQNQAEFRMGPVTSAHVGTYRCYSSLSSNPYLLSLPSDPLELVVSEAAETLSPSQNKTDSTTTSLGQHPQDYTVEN
T5 sequence (Q8N423 22-460 limits assumed): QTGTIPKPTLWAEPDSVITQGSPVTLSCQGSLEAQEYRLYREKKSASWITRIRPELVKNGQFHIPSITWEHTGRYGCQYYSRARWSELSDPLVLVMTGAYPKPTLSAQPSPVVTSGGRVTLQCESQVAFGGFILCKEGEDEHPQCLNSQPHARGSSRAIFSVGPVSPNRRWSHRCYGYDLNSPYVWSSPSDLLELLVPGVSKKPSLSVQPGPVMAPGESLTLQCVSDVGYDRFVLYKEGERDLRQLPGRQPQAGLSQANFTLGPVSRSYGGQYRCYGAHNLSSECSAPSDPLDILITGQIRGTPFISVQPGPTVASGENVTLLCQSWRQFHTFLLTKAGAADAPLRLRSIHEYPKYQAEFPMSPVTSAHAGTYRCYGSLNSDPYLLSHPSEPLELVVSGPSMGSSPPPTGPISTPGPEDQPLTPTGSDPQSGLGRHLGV
T6 sequence (O75022 24-443 limits assumed): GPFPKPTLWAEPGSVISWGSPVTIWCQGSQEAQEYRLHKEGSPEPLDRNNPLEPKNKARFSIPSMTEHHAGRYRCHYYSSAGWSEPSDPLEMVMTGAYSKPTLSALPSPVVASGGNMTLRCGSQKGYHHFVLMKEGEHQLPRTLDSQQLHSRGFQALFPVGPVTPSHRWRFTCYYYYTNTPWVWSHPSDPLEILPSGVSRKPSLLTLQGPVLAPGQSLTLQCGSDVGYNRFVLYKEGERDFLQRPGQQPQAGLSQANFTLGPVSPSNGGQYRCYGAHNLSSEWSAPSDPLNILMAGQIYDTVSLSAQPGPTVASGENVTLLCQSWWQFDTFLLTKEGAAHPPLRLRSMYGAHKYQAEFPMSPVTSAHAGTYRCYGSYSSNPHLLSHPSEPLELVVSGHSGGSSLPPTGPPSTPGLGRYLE
T8 sequence (O75019 17-461 limits assumed): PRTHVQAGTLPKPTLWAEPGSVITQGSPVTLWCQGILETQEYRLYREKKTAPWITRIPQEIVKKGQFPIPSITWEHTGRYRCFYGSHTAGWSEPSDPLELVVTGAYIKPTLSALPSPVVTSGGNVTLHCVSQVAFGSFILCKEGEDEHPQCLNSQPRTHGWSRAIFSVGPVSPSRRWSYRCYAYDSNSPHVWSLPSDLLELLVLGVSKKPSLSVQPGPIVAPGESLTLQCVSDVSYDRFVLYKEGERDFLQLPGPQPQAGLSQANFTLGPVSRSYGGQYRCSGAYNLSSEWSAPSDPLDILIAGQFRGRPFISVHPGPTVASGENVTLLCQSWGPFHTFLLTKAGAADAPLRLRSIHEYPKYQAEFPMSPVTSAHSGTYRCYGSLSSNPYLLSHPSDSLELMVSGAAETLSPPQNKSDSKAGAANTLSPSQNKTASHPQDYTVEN
T3 sequence (Q6PI73 24-447 limits assumed): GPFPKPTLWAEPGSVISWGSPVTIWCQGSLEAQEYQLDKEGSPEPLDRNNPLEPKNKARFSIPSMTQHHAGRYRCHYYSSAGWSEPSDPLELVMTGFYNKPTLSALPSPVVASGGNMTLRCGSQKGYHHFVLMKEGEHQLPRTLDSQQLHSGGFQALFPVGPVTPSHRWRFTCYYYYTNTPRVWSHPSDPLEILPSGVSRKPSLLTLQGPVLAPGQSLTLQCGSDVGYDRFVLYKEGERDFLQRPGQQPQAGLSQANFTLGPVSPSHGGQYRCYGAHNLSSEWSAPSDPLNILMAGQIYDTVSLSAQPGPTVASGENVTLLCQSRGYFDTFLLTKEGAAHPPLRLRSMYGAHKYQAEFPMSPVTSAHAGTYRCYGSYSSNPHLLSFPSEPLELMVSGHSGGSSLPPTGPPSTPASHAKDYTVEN
T2 sequence (A6NI73 42-268 limits assumed): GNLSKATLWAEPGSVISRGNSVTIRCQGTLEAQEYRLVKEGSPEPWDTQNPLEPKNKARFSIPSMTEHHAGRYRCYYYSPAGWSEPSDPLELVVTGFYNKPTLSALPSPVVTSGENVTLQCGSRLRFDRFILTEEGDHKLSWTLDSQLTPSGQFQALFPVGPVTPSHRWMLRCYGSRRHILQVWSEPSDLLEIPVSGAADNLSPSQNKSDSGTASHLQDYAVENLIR
T11 sequence (P59901 24-446 limits assumed): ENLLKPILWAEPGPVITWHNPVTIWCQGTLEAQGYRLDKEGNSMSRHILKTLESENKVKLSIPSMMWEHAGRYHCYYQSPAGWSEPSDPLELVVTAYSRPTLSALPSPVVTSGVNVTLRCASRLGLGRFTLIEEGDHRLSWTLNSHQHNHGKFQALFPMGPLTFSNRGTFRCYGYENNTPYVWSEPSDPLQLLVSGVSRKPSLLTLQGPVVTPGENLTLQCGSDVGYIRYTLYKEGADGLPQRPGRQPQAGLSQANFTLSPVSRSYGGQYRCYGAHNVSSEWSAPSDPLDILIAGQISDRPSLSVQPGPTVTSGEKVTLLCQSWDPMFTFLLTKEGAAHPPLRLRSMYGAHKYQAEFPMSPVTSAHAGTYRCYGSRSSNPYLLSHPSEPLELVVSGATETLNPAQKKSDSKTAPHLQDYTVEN
T4 sequence (Q8NHL6 24-461 limits assumed): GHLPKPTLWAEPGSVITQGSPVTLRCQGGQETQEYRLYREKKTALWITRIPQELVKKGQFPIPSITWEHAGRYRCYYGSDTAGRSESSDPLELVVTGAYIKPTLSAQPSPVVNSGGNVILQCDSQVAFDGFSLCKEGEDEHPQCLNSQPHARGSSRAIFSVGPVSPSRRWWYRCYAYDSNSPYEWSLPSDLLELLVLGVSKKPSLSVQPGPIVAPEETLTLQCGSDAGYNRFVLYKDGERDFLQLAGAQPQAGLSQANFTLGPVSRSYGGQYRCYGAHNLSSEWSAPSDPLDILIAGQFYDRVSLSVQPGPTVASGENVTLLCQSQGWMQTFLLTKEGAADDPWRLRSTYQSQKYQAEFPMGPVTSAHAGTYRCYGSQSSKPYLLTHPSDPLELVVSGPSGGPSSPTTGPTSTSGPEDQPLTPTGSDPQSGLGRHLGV

B1: MG-Ⅰ 单克隆抗体 (mouse IgG1 / Ck full antibody) (antibody, V domains shown)
VH: EVKLEESGGGLVKPGGSLKLSCAASGFTFSSNTMSWVRQTPEKRLEWVATISSGGSYIYYRDSVKGRFTISRDNAKNTLYLQMSSLKSEDTAMYYCTSEGRSRDPYYYSMDYWGQGTSVTVSS
VL: DIVLTQTPLSLPVSLGDQASISCRSSQSLVHSNGNTYLHWYLQKPGQSPKLLIYKVSNRFSGVPDRFSGSGSGTDFTLKISRVEAEDLGVYFCSQSTHVPTFGAGTKLELKA
notes: also called 单克隆抗体MG-Ⅰ
IC50(μg/mL), 抑制THP-1分泌ARG1 (arginase activity in supernatant, with 0.5μg/mL ApoE) [1]: 257 µg/mL | binding result [2]: no binding (tested: 50μg/mL) | binding result [3]: no binding (tested: 50μg/mL) | binding result [4]: no binding (tested: 50μg/mL) | binding result [5]: no binding (tested: 50μg/mL) | binding result [6]: no binding (tested: 50μg/mL) | binding result [7]: no binding (tested: 50μg/mL) | binding result [8]: no binding (tested: 50μg/mL) | binding result [9]: no binding (tested: 50μg/mL) | binding result [10]: no binding (tested: 50μg/mL) | binding result [11]: no binding (tested: 50μg/mL) | OD 450nm/630nm [12]: 0.066 | OD 450nm/630nm [13]: 0.053 | OD 450nm/630nm [14]: 0.045 | OD 450nm/630nm [15]: 0.04 | OD 450nm/630nm [16]: 0.05 | OD 450nm/630nm [17]: 0.176 | OD 450nm/630nm [18]: 2.72 | OD 450nm/630nm [19]: 0.103 | OD 450nm/630nm [20]: 0.046 | OD 450nm/630nm [21]: 0.057 | OD 450nm/630nm [22]: 0.077 | EC50 [23]: 0.188 µg/mL | EC50 [24]: 4.31 µg/mL | IC50 [25]: 7.18 µg/mL
